Biological target: T1, human CD25 (alpha subunit of the interleukin-2 receptor, IL2RA) (human, UniProt P01589 22-272)
T1 sequence: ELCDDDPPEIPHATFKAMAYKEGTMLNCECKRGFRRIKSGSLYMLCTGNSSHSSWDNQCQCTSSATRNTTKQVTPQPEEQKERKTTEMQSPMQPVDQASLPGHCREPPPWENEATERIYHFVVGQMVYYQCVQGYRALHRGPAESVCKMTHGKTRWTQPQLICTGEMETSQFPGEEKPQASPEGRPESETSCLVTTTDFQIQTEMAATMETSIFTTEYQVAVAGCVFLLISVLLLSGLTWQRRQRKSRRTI
Assay: cell-based or functional assay

ADCC EC50, AML-22 target cells with activated NK cells, flow cytometry readout, 17 h: ~0.03 µg/mL | ADCC EC50, EOL-1 target cells with activated NK cells, flow cytometry readout, 17 h: ~0.03 µg/mL | ADCC EC50, EOL-1 target cells, flow cytometry readout: 0.03 µg/mL
B1: CD25 Mab (RG6292) (antibody, human IgG1, kappa, V domains shown)
VH: QVQLVQSGAEVKKPGSSVKVSCKASGGTFSSLAISWVRQAPGQGLEWMGGIIPIFGTANYAQKFQGRVTITADESTSTAYMELSSLRSEDTAVYYCARGGSVSGTLVDFDIWGQGTMVTVSS
VL: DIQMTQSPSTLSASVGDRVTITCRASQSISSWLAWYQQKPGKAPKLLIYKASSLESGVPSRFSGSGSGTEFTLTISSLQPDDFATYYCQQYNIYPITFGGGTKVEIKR
modifications: afucosylated Fc glycan (produced using the GlymaxX technology)
ADCC EC50, EOL-1 target cells, CytoTox-Glo luminescence readout: 0.035 µg/mL

Reference: US20240352136A1 (Hoffmann-La Roche, published 2024)
